Tested on: SphI restriction endonuclease (recombinant, NEB#808 / pEGsph50-2; gene within SEQ ID NO:2) (Streptomyces phaeochromogenes)
Experiment: cleavage_in_vitro
Settings: 150 units, 4 h, 37 C; nonspecific endonuclease control

In the case of phiX174 RFI DNA, the activity (% converted to RF II) was under 25.
